Biological target: T cell Receptor (TcR) on human peripheral blood T lymphocytes
Assay: cell-based or functional assay

| Substance | P50% (human PBL proliferation, 3H thymidine incorporation) | Reduction (fold, against SMEZ-2 wild type) |
| --- | --- | --- |
| SMEZ-2 D42C | 10 ng/mL | 10000 fold |
| SMEZ-2 W75L | > 10 ng/mL | > 100000 fold |
| SMEZ-2 Y18A | > 10 ng/mL | > 100000 fold |
| SMEZ-2 W75L.D42C.K182Q (M1) | > 10 ng/mL | > 100000 fold |
| SMEZ-2 W75L.D42C.K182Q.Y18A. (M2) | > 10 ng/mL | > 100000 fold |

From patent publication US20060246067A1
